Values of other authors in article PMC7456198.
Like-named read-outs stand apart in the source and are kept apart here.

Tests used:
[1] = biological target: GLP-1 receptor (Homo sapiens) (UniProt P43220)
[2] = biological target: GLP-1 receptor (Homo sapiens) (UniProt P43220); remark: listed apart in the source

Sequence of UniProt P43220 (P43220 24-463): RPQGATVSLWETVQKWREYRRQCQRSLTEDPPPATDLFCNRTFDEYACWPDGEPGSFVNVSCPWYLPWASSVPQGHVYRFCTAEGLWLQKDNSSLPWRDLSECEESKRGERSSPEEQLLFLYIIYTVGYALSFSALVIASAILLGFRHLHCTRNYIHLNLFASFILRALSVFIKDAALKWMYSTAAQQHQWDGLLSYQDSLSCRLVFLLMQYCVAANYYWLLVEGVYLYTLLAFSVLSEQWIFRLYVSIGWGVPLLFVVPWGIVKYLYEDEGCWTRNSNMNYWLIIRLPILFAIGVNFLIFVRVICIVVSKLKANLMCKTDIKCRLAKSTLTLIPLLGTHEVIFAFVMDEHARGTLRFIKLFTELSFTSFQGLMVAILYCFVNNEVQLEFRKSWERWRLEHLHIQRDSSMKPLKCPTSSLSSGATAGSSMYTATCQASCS

Substance | Kd [1] | Kd [2]
Liraglutide (from UniProt P01275) | 0.11 nM | 
Semaglutide (from UniProt P01275) |  | 0.38 nM
